US12448429B2, “T cell receptors specific to b-cell maturation antigen for treatment of cancer” (Dana-Farber Cancer Institute, Inc., priority 2019, dated 2025)

Key:
HLA-A2 [1] = target: T1, HLA-A2 (Homo sapiens, UniProt P04439, D140Y/D185E/D98H/E176V/E277Q/G131W/G231S/I119V/I121R/I166T/I218V/L300P/L318F/N151K/N90K/P208A/P217A/Q86G/Q94H/R138H/R169H/T345S); test: HLA-A2 binding affinity of BCMA peptides on T2 cells (HLA-A2 up-regulation, MFI by flow cytometry); details: for HLA-A2 binding affinity among the six native peptides: dose-dependent, Example 12; for HLA-A2 specificity (HLA-A2 binding capacity, MFI): six native BCMA peptides compared, T2 cells pulsed overnight with 0-200 μg/ml peptide, FIG. 2; for change of HLA-A2 binding affinity of heteroclitic peptide compared to its native peptide: T2 cells, FIG. 3, Example 12: n=3, p<0.05
T1 construct: endogenous in cells; host or cells: T2 cell line (human B and T cell hybrid), provided by Dr. J. Molldrem
Protocol: The listed BCMA peptides were evaluated for HLA-A2-specific binding capacity using the T2 cell line. In the assay, T2 cells were washed, resuspended in serum-free AIM-V medium to a final concentration of 1×10^6 cells/ml and transferred into wells of a 24-well tissue culture plate. The cells were pulsed with different concentrations of respective BCMA peptide (0-200 μg/ml) plus 3 μg/ml human […] (Sigma) and incubated at 37° C., 5% CO2 in humidified air. Following overnight incubation, the cells were washed, stained with mouse anti-human HLA-A2-FITC mAb for 15 minutes at 4° C., washed and analyzed using a FACSort™ flow cytometer with CellQuest™ v2.1 software (Becton Dickinson, San Jose, Calif.). […] Among the BCMA peptides evaluated, “#4. […] (FIG. 2).
(§1) The native and heteroclitic BCMA peptides were examined for HLA-A2 binding stability using the T2 cell line. T2 cells were pulsed with the respective peptide. After overnight incubation, the cells were washed to remove unbound peptide; they were evaluated for binding affinity as shown above and stability as following. The cells were incubated with 10 μg/ml Brefeldin A (Sigma) at 37° C. and 5% CO2 for 1 hour to block cell surface expression of newly synthesized HLA-A2 molecules. Peptide/HLA-A2 binding stability was evaluated at 0, 2, 4, 6 and 18 hours post-Brefeldin A treatment. Following the incubation period, the cells were harvested, washed, stained with mouse anti-human HLA-A2-FITC mAb and analyzed by flow cytometry. […] Therefore, the Heteroclitic #4 BCMA72-80 (YLMFLLRKI (SEQ ID NO: 37)) peptide was selected for further evaluation of its immunogenic potential to generate MM-specific cytotoxic T cells (CTLs).
(§2) T2 cells were pulsed overnight with various doses of peptide plus β2-microglobulin (3 μg/ml) (Sigma, St Louis, Mo.). Following overnight incubation, the cells were stained with HLA-A2-PE mAb and analyzed using a FACSCanto™ flow cytometer (BD). Peptide/HLA-A2 complex stability was measured on peptide loaded T2 cells at 0, 2, 4, 6 and 14 hours post-brefeldin A treatment by staining with HLA-A2-PE mAb and flow cytometric analysis.

HLA-A2 [2] = target: T1, HLA-A2; test: Peptide/HLA-A2 binding stability on peptide-pulsed T2 cells after Brefeldin A treatment; details: for HLA-A2 stability (and affinity) of heteroclitic peptides: 0, 2, 4, 6 and 14 hours post-brefeldin A, compared with native peptides and HIV-Gag77-85 positive control
Protocol: as §1, §2

[3] = listed as heteroclitic BCMA72-80

| Sequence | HLA-A2 binding affinity among the six native peptides (HLA-A2 [1]) | HLA-A2 specificity (HLA-A2 binding capacity, MFI) (HLA-A2 [1]) | change of HLA-A2 binding affinity of heteroclitic peptide compared to its native peptide (HLA-A2 [1]) | also measured |
| --- | --- | --- | --- | --- |
| VLMFLLRKI [#4. BCMA72-80] | highest HLA-A2 binding affinity | highest level of HLA-A2 specificity | – | – |
| AILWTCLGL [#5. BCMA54-62] | highest HLA-A2 binding affinity | second highest level | – | – |
| YILWTCLGL [Heteroclitic #5 BCMA54-62] | – | – | increased from their native peptide | change of HLA-A2 binding affinity of heteroclitic peptide compared to its native peptide (HLA-A2 [1]; listed as heteroclitic hBCMA54-62): highest increase in HLA-A2 binding affinity; HLA-A2 stability (and affinity) of heteroclitic peptides (HLA-A2 [2]): further enhanced |
| YLMFLLRKI [Heteroclitic #4 BCMA72-80] | – | – | increased from their native peptide | change of HLA-A2 binding affinity of heteroclitic peptide compared to its native peptide (HLA-A2 [1]; [3]): highest increase in HLA-A2 binding affinity; HLA-A2 stability (and affinity) of heteroclitic peptides (HLA-A2 [2]; listed as BCMA72-80 (YLMFLLRKI (SEQ ID NO: 37))): highest level of HLA-A2 affinity and stability; HLA-A2 stability (and affinity) of heteroclitic peptides (HLA-A2 [2]; [3]): further enhanced; HLA-A2 binding stability compared to the native peptide (HLA-A2 [2]; 0, 2, 4, 6 and 18 hours post-Brefeldin A, 50 ug/ml, FIG. 4): significant improvement |
| YQNEYFDSL [heteroclite BCMA9-17] | – | – | did not alter its HLA-A2 affinity status | – |
